Results published in patent publication US20100291097A1 (AC IMMUNE S A, published 2010).

T1: Aβ17-40 peptide, biotinylated (Anaspec) (biotinylated (position not given))
T1 peptide: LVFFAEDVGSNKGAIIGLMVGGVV

B1: ACI-11-Ab-9 monoclonal antibody (antibody, V domains shown)
VH: QVQLQQSDAELVKPGASVKISCKVSGYTFTDHTIHWMKQRPEQGLEWIGYIYPRDGSTKYNEKFKGKATLTADKSSSTAYMQLNSLTSEDSAVYFCARDYGYAFDYWGQGTTLTVSS
VL: QAVVTQESALTTSPGGTVILTCRSSTGAVTTSNYANWVQEKPDHLFTGLIGGTSNRAPGVPVRFSGSLIGDKAALTITGAQTEDDAMYFCALWYSTHYVFGGGTKVTVL
notes: Mouse monoclonal IgG from hybridoma FG1F9E4 (DSM ACC2845); also called clone FG1F9E4
B2: ACI-12-Ab-11 monoclonal antibody (antibody, V domains shown)
VH: B1 VH
VL: B1 VL
notes: Mouse monoclonal IgG from hybridoma FK2A6A6 (DSM ACC2846); also called ACI-12-Ab-11 (clone: FK2A6A6); clone FK2A6A6

How the values were obtained:
Aβ1-42 peptide = experiment: cell-based or functional assay
[1] = target: T2, Aβ1-40 peptide, biotinylated (Anaspec) (biotinylated (position not given)); experiment: ELISA, biotin-peptide on streptavidin, Ab 10 µg/ml; mean of 2, background subtracted
T2 construct: also called Ab1-40
Description: (§1) The peptides in the peptide library were composed of 8, 9 or 10-mer aa peptides. A biotinylated complete Aβ₁₋₄₂ peptide (human sequence) was used as positive control (Bachem, Bubendorf, Switzerland). In addition, longer peptides covering Aβ1-28, Aβ17-40, Aβ1-40 and Aβ₁₋₄₂ were used to define the broader region to which these antibodies may bind. These 4 peptides were also biotinlyated (manufactured by Anaspec and purchased from ANAWA Trading SA, Switzerland). Epitope mapping was done according to the manufacturer's (Mimotopes) instructions. Briefly, Streptavidin coated plates (NUNC, Roskilde, Denmark) were blocked with 0.1% BSA in PBS overnight at 4° C. After washing with PBS-0.05% Tween 20, plates were coated for 1 hour at RT with the different peptides from the library, diluted in 0.1% BSA, 0.1% Sodium Azide in PBS to a final concentration of 10 μM. […] Plates were washed again and incubated with alkaline phosphatase conjugated goat anti mouse IgG (Jackson Immunresearch West Grove, Pa., USA) for 1 h at RT. After final washing, plates were incubated with phosphatase substrate (pNPP, Sigma-Aldrich, St Louis, Mo., USA) and read after 3 hours of incubation at 405 nm using an ELISA plate reader.

[2] = target: T3, Biotinylated complete Aβ1-42 peptide (human sequence, Bachem) (human, biotinylated (position not given)); experiment: as above
T3 construct: also called 1-42B; Aβ1-42 (positive control of the peptide library ELISA)
Description: as §1

[3] = target: T4, Aβ1-42 peptide, biotinylated (Anaspec) (biotinylated (position not given)); experiment: as above
T4 construct: also called 1-42A
Description: as §1

[4] = target: T1, Aβ17-40 peptide, biotinylated (Anaspec); experiment: as above
Description: as §1

[5] = target: T1, Aβ17-40 peptide, biotinylated (Anaspec); experiment: ELISA on longer biotinylated Aβ peptides
Description: as §1

[6] = target: T3, Biotinylated complete Aβ1-42 peptide …; experiment: peptide library ELISA, positive control, Ab 10 µg/ml
Description: as §1

Sequence of Aβ1-42 peptide (peptide, as listed by the source): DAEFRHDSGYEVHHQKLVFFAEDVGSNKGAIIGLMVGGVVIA
T3 sequence (peptide, as listed by the source): as above
T4 sequence (peptide, as listed by the source): as above

Row | Binder | disaggregation of pre-aggregated Aβ1-42, thioflavin T assay, molar ratio 1:10 (Aβ1-42 peptide) | disaggregation of pre-aggregated Aβ1-42, thioflavin T assay, molar ratio 1:100 (Aβ1-42 peptide) | inhibition of Aβ1-42 aggregation, thioflavin T assay, molar ratio 1:10 (Aβ1-42 peptide) | inhibition of Aβ1-42 aggregation, thioflavin T assay, molar ratio 1:100 (Aβ1-42 peptide) | O.D. [1] | O.D. [2] | O.D. [3] | O.D. [4] | binding result [5] | O.D. [6]
1 | B1 | 52% | 22% | 69% | 34% | 1.02 O.D. | 1.54 O.D. | 0.78 O.D. | 0.02 O.D. | no binding (tested: 10 µg/ml) | 
2 | B2 | 54% | 18% | 66% | 30% | 0.62 O.D. | 1.07 O.D. | 0.44 O.D. | -0.02 O.D. |  | 0.69 O.D.
